{"source": "patent US20230303695A1", "about": "(SHANGHAI XBH BIOTECHNOLOGY, published 2023)", "binders": {"B1": {"name": "Antibody C34 (1D7) (antibody, V domains shown)", "VH": "EVQLLESGGGLVQPGGSLRLSCAVSGFTFNSFAMSWVRQAPGKGLEWVSAISGSGGGTYYADSVKGRFTISRDNSKNTLYLQMNSLRAEDTAIYYCAREVDGYGAFDIWGQGTMVTVSS", "VL": "DIQMTQSPSSLSASVGNRVTITCRASQTIRNYLNWYQQKPGEAPKVLIYGASTLQSGVPSRFSASGSGTDFTLTISSLQPDDFATYHCQQTFSDPYTFGQGTKVEIK", "notes": "also called mAb-1D7 (C34)"}, "B2": {"name": "Antibody C35 (1B1) (antibody, V domains shown)", "VH": "EVQLLESGGGLVQPGGSLRLSCAVSGFTFNSFAMSWVRQAPGKGLEWVSAISGSGGGTYYADSVKGRFTISRDNSKNTLYLQMNSLRAEDTAVYYCAREGWEVRTPGYFDYWGQGTLVTVSS", "VL": "DVVMTQSPSSLSASVGDRVTITCRASHRIFSYLTWYHQKPGKAPNLLISGASSLGAGVPSRFSGSGSGTDFTLTISSLQPEDFGTYYCQQSFSDPYTFGQGTKLEIKR", "notes": "also called mAb-1B1 (C35)"}, "B3": {"name": "Antibody C39 (8G4) (antibody, V domains shown)", "VH": "EVQLLESGGGLVQPGGSLRLSCAASGFTFSSYAMSWVRQAPGKGLEWVSGITGSGGSTYYADSVKGRFTISRDNSKNTLYLQMNSLRAEDTAVYYCARSRNLDSWGQGTLVTVSS", "VL": "DIQLTQSPSSLSASVGDRVTITCRASQSIHNYLNWIQQTPGKAPKLLVFAASTLQRGVPPRYSGRGSGTEFTLTISSLQPEDFATYYCQQSYTTPLTFGGGTKVEIR", "notes": "also called mab-8G4 (C39)"}, "B4": {"name": "Antibody C1 (antibody, V domains shown)", "VH": "QVQLLQSGGGLVQPGGSLRLSCAASGFTFSRYRMSWVRQAPGKGLEWVSRISRSGGATAYADSVKGRFTISRDNSKNTLYLQMNSLRAEDTAVYYCARDATGRHYNGMDVWGRGTLVTVSS", "VL": "EIALTQSPSSLSASVGDRVTITCRASQTITRHLNWFQQKPGKAPNLLIHGTSALQTGVPPRFSGGGSGTDFTLTINSLQPEDFGTYYCQQSHTKPWTFGPGTKVEIKR", "notes": "also called anti-IGSF8 C1"}, "B5": {"name": "Antibody C10 (antibody, V domains shown)", "VH": "EVQLLESGGGLVQPGGSLRLSCAASGFTFSRYRMYWVRQAPGKGLEWVSTISRSGGRTVYADSVKGRFTISRDNSKNTLYLQMNSLRAEDTAVYYCARDATGRHYNGMDVWGQGTLVTV", "VL": "ETTLTQSPATLSVSPGERATLSCRASQSVSSNVAWYQQKPGQAPRLLMFGSGTRATGIPARFSGSGSGTEFTLTISSLQSEDFAAYYCQQYNDWPSFGQGTRVEIKG", "notes": "also called anti-IGSF8 C10"}, "B6": {"name": "Antibody C11 (antibody, V domains shown)", "VH": "EVQLVESGGGLVQPGGSLRLSCAASGFTFSRYRMYWVRQAPGKGLEWVSSISSSGGRTKYADSVKGRFTISRDNSKNTLYLQMNSLRAEDTAVYYCARGVRYCSSPSCSRGPRYAMDVWGKGTTVTVSS", "VL": "DIQMTQSPSSLSASVGDRVTITCRASYVIRNDLSWYQQKPGKAPKLLIYGTSSLHNGVPSRFSGSGYGTYFTLTISSLQPEDFGTYYCLQDDKYPLTFGGGTKVEIKR", "notes": "also called anti-IGSF8 C11"}, "B7": {"name": "Antibody C12 (antibody, V domains shown)", "VH": "EVQLVESGGGLVQPGGSLRLSCAASGFTFSKYKMSWVRQAPGKGLEWVSTIAPSGGGTRYADSVKGRFTISRDNSKNTLYLQMNSLRAEDTAVYYCARGGHFSNPWGQGTLVTVSS", "VL": "DVVMTQSPLSLPVTLGQPASISCRSSQSLVHTDGDTYLNWYQQRPGQSPRRLIYKVSKRDSGVPDRFSGSGSGTDFTLKISRVEAEDVGVYYCMQGIKRPYTLGQGTKLEIKR", "notes": "also called anti-IGSF8 C12"}, "B8": {"name": "Antibody C2 (antibody, V domains shown)", "VH": "B4 VH with Q1E, R31S, R33P, S35N, A57R, A59S, G102R, R113K, L116T", "VL": "DVVMTQSPATLSLSPGERASLSCRASRSVGKYLAWYQQKPGQAPRLLFYYASLRAGDIPSRFTASGSGTDFTLTISRLEPEDFAVYYCQQYGSSPRTFGQGTKLEMKR", "notes": "also called anti-IGSF8 C2"}, "B9": {"name": "Antibody C7 (antibody, V domains shown)", "VH": "EVQLEESGGGLVQPGGSLRLSCAASGFTFSSYPMNWVRQAPGKGLEWVSRISRSGGRTSYADSVKGRFTISRDNSKNTLYLQMNSLRAEDTAVYYCARDATRRHYNGMDVWGKGTTVTVSS", "VL": "B8 VL with D1E, V2T, V3T, M4L", "notes": "also called anti-IGSF8 C7"}, "B10": {"name": "Antibody C3 (antibody, V domains shown)", "VH": "B9 VH with E1Q, E5V, S31H, N35R, R50S, S52R, S59K, R102G", "VL": "DVVMTQSPSSLSASVGDRVTITCRTSQVIGTSLNWYQQKPGRAPRLLIYSASNLQSGVPSRFSGSGHGTQFTLTISSLQPEDFATYSCQQSSRVPHTFGQGTKLEMRR", "notes": "also called anti-IGSF8 C3"}, "B11": {"name": "Antibody C4 (antibody, V domains shown)", "VH": "B6 VH with E1Q, V5L, E6Q, Y35G, S52A, S53R, K59Y", "VL": "EIVMTQSPSSVSASVGDRVTITCRASQGISSWLAWYQQKPGKAPKLLIYAASSLQSGVPSRFSGSGSGTDFTLTISSLQPEDFATYYCQQANSFPITFGQGTRLEIKR", "notes": "also called anti-IGSF8 C4"}, "B12": {"name": "Antibody C5 (antibody, V domains shown)", "VH": "EVQLVQSGGGLVQPGGSLRLSCAASGFTFSRYRMAWVRQAPGKGLEWVSNITRSGGVTRYADSVKGRFTISRDNSKNTLYLQMNSLRAEDTAVYYCARDPNRVTAISSHYGMDVWGKGTTVTVSS", "VL": "EIVLTQSPSTLSASVGDRVTISCRASQSISRWLAWYQQKPGQAPRLLIYDASNRATGVPARFSVSGSETDSTLTISSLEPEDFAMYYCQQRSNWPPMYTFGQGTKLEIKR", "notes": "also called anti-IGSF8 C5"}, "B13": {"name": "Antibody C6 (antibody, V domains shown)", "VH": "B9 VH with E5V, S31P, P33R, N35H, S52N, R53P, S59W, R102G, K113Q, T116M", "VL": "DIQMTQSPSTLSASVGDRVTITCRASQSINKWLAWYQQKPGKAPKLLIYKASTLESGVPSRFSGSGSGTDFTLTINSLQPEDFATYYCQQSHSAPWTFGQGTKVEIER", "notes": "also called anti-IGSF8 C6"}, "B14": {"name": "Antibody C8 (antibody, V domains shown)", "VH": "not shown", "VL": "B11 VL with E1D, V3Q, W32R, A91R, N92H, F94Y", "notes": "also called anti-IGSF8 C8"}, "B15": {"name": "Antibody C9 (antibody, V domains shown)", "VH": "B6 VH with R33D, Y35S, S50R, S52R, S53Y, K59G", "VL": "DVVMTQSPATLSLSPGEGATLSCRASQSVRGYLAWYQQKPGQAPRLLIYDTFKRATGIPARFSGSGSGADFTLTISSLEPEDSAVYYCQQYFASPWTFGQGTKVEIKR", "notes": "also called anti-IGSF8 C9"}, "B16": {"name": "L1-30 (antibody, V domains shown)", "VH": "QVQLVESGGGVVQPGRSLRLSCAASGFTFSTYGMHWVRQAPGKGLEWVAVIWDDGSYKYYGDSVKGRFTISRDNSKNTLYLQMNSLRAEDTAVYYCARDGSGWGYAFDIWGQGTLVTVSS", "VL": "DIQLTQSPSSLSASVGDRVTITCQASQDIGPWLNWYQHKPGKAPKPLVFGADNLETGVPSRFSASGSGTDFTLTISSLQPEDFATYYCQQYDSFPYTFGQGTKVEIK"}, "B17": {"name": "L1-31 (antibody, V domains shown)", "VH": "B16 VH with D54G, S56K", "VL": "B16 VL with G50R, A51S, D52P"}, "B18": {"name": "L1-32 (antibody, V domains shown)", "VH": "B16 VH with D54G", "VL": "B16 VL with A51S, D52P"}, "B19": {"name": "L1-33 (antibody, V domains shown)", "VH": "B16 VH with D54G, S56K", "VL": "B16 VL with A51S, D52P"}}, "note": "Changes are numbered by the printed parent chain."}
{"target": "T1, D1 domain of IGSF8 (recombinant protein) (human, UniProt Q969P0 28-149, limits assumed)", "T1 construct": "domain: D1 (Ig V-set domain); also called Ig V-set domain of IGSF8", "T1 sequence (looked up)": "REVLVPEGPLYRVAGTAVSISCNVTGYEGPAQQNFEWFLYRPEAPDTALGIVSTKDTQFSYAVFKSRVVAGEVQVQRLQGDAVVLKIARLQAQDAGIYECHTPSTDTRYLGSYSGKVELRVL", "test": "SPR, Biacore T100", "units": {"Kd": "nM"}}
{"binder": "B1", "Kd": "< 50"}
{"binder": "B2", "Kd": "< 50"}
{"binder": "B3", "Kd": "< 50"}
{"target": "T2, IGSF8 extracellular domain (ED) (Homo sapiens (Human), UniProt Q969P0 28-579)", "T2 construct": "also called IGSF8 ECD", "T2 sequence": "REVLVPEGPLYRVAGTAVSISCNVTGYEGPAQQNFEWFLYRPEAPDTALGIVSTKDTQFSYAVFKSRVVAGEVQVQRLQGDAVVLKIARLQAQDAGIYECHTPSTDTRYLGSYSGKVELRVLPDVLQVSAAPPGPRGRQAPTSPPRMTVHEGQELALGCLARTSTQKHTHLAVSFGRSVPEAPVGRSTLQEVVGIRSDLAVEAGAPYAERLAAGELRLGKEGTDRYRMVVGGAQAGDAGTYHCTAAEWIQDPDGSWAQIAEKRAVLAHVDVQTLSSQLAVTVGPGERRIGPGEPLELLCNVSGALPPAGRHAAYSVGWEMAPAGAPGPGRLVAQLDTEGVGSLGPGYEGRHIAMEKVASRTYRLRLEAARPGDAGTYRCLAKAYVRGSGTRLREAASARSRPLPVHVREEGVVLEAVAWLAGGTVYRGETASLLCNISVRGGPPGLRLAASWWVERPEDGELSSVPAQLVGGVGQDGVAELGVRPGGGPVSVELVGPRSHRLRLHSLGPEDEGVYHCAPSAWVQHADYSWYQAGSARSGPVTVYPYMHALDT", "test": "ELISA on IGSF8 extracellular domain"}
{"binder": "B4", "binding result": "binds"}
{"binder": "B5", "binding result": "binds"}
{"binder": "B6", "binding result": "binds"}
{"binder": "B7", "binding result": "binds"}
{"binder": "B8", "binding result": "binds"}
{"binder": "B9", "binding result": "binds"}
{"binder": "B10", "binding result": "binds"}
{"binder": "B11", "binding result": "binds"}
{"binder": "B12", "binding result": "binds"}
{"binder": "B13", "binding result": "binds"}
{"binder": "B14", "binding result": "binds"}
{"binder": "B15", "binding result": "binds"}
{"target": "T3, recombinant human IGSF8 extracellular domain tagged by a human Fc region (IGSF8-hFc) (human, UniProt Q969P0 28-579, biotin label in Examples 17, 18 and 28 (site not given))", "T3 construct": "also called IGSF8-Fc fusion protein; IGSF8-hFc-biotin; not shown: human Fc region", "T3 sequence": "T2 sequence", "test": "SPR, Ab captured", "procedure": "The binding affinities of the L1 and L2 antibodies to IGSF8 recombinant protein were determined by surface plasmon resonance (SPR). Briefly, anti-human Fab antibody was imobilized on acarboxyl-derivatized SPR chip surface, and the antibodies were captured on the resulting surface at 5 μg/ml for 30 seconds.", "units": {"Kd": "nM", "koff": "s⁻¹", "kon": "M⁻¹ s⁻¹"}}
{"binder": "B16", "Kd": 0.00642, "koff": "3.03e-06", "kon": 472000}
{"binder": "B17", "Kd": 0.00371, "koff": "7.8e-07", "kon": 210000}
{"binder": "B18", "Kd": 0.021, "koff": "6.56e-06", "kon": 312000}
{"binder": "B19", "Kd": 0.029, "koff": "8.01e-06", "kon": 276000}
{"target": "T4, full-length IGSF8 (recombinant antigen of the SPR screen; IGSF8 target antigen of the phage panning) (human, UniProt Q969P0 28-579, limits assumed)", "T4 sequence (looked up)": "T2 sequence", "test": "SPR, Biacore T100", "units": {"Kd": "nM"}}
{"binder": "B1", "Kd": 2.12}
{"binder": "B2", "Kd": 2.06}
